Source: patent US12178848B2, “Methods and compositions for the treatment of exocrine pancreatic insufficiency” (Board of Regents, The University of Texas System, priority 2016, dated 2024)

B1: fibroblast growth factor 21 (protein, UniProt Q9NSA1 29-209, looked up)
Fibroblast growth factor 21: HPIPDSSPLLQFGGQVRQRYLYTDDAQQTEAHLEIREDGTVGGAADQSPESLLQLKALKPGVIQILGVKTSRFLCQRPDGALYGSLHFDPEACSFRELLLEDGYNVYQSEAHGLPLHLPGNKSPHRDPAPRGPARFLPLPGLPPALPEPPGILAPQPPDVGSSDPLSMVGPSQGRSPSYAS
notes: human recombinant FGF21 from Novo Nordisk, the native form of the human FGF21

Assays:
AR42J cells = assay: Calcium imaging with fluo4-AM; assay type: cell-based; details: for block of CCK-mediated calcium release: inhibitor 30 min prior and during imaging: 1 μM PD173074, 10 μM L-364,718, 10 μM U73122, 100 μM 2-APB; for block of calcium release elicited by FGF21: 1 μg/ml FGF21, inhibitor 30 min prior and during imaging: 1 μM PD173074, 10 μM L-364,718, 10 μM U73122, 100 μM 2-APB; for intracellular calcium release (ΔF/F0): 1 μg/ml FGF21 or 100 pM CCK
Method: AR42J cells were pre-loaded with 1 μM of the calcium indicator fluo4-AM (Life Technologies) for 30 minutes at 37° C. Where indicated, 1 μM PD173074 (Sigma), 10 μM L-364,718 (Tocris Bioscience), 10 μM U73122 (Tocris Bioscience) or 100 μM 2-APB (Tocris Bioscience) were added during fluo4-AM preloading and to the imaging medium (DMEM without phenol red). Cells were imaged on a BD Pathway 855 bioimager with a 10× objective. Vehicle, FGF21 (1 μg/ml) and CCK (100 pM) were delivered 10 seconds after baseline fluorescence acquisition by an automated fluid delivery mechanism and imaged for a total time of 2 minutes. Calcium release was calculated using Image J as ΔF/F0, where ΔF is the raw fluorescent signal (F) from cells minus their background fluorescence (calculated from a region where no cells and fluorescent signal was expected), and F0 was the average of the first 6 frames before the compound was added. Sample size (n) corresponds to the number of cell clusters measured with each cell cluster containing 5-20 cells.

ad-lib fed WT mice = assay: FGF21 protein levels in pancreatic juice and plasma after CCK treatment; assay type: in vivo, mouse; details: 15 min CCK treatment vs basal
Description: (§1) Fgf21-knockout (KO) mice (Potthoff, et al., Proc Natl Acad Sci USA 106, 10853-10858, 2009), Fgf21-transgenic (Tg) mice (Inagaki, et al., Cell Metab 5, 415-425, 2007), KLB-T and WT littermates were maintained on a C57Bl/6J background. β-Klotho-KO and heterozygous littermates were kept on a mixed C57BL/6J; 129/Sv background (Ding, et al., Cell Metab 16, 387-393, 2012). All mice were housed in a pathogen-free facility and fed a standard chow diet (Harlan Teklad 2916). For fasting refeeding experiments, mice were fasted overnight and then refed for 2 hours with standard chow diet. Acute pancreatitis was induced by administration of seven hourly intraperitoneal injections of 50 μg/kg cerulein (Sigma), whereas mice in the control group were injected with saline. FGF21 in plasma was measured using a mouse FGF21 ELISA kit (Biovendor). Male mice were used for all experiments.
(§2) Mice were injected with vehicle (10 mM Na2HPO4, 2% [w/v] glycerol, pH 7.6) or 1 mg/kg human recombinant FGF21 (Novo Nordisk) subcutaneously twice per day for two consecutive days. Mice were fasted for 6 hours, and pancreatic juice was collected for 15 minutes. The final injection of vehicle or FGF21 was given 1 hour prior to pancreatic juice collection.

[1] = tested on: pancreatic protein synthesis; assay: Pancreatic protein synthesis, 3H-phenylalanine flooding dose method; assay type: in vivo, mouse; details: mice, 1 mg/kg FGF21 or 5 mg/kg CCK for 2 hr
Method: Pancreatic protein synthesis was measured by the flooding dose method using ^3H-phenylalanine (Sans, et al., American journal of physiology 287, G667-675, 2004).

ERK1/2 = assay: Western blot of pancreatic phospho-ERK1/2; assay type: in vivo, mouse; details: for ERK1/2 phosphorylation in pancreas (FIG. 4F): WT mice, 1 mg/kg FGF21 or 5 μg/kg CCK (i.p.) for 15 min; for ERK1/2 phosphorylation in pancreas (FIG. 3B): mice, 1 mg/kg FGF21 or 5 mg/kg CCK for 15 min
Method: (§3) Pancreas was homogenized using Fastprep-24 lysing matrix bead tubes (MP Biomedicals) in 1×RIPA buffer (Cell Signaling Technology) supplemented with a cocktail of protease and phosphatase inhibitors (Roche). Protein lysate concentrations were measured using the DC Protein Assay (Biorad). Equal protein amounts were loaded and electrophoresed in a […] SDS-polyacrylamide gel (Biorad) and transferred to nitrocellulose membranes (Biorad). Membranes were blocked with 5% BSA in TBST for 1 hour. Probing of membranes with antibodies against FGF21, amylase and lipase (Santa Cruz); β-actin (Abcam); p-EIF2α, p-ERK1/2, and p-eIF4E-BP1 (Cell Signaling Technology) was performed overnight at 4° C. Membranes were then incubated with HRP-conjugated secondary antibodies (Cell Signaling Technology) against the primary antibody's host species for 1 hour. Membranes were developed using the Super Signal West Chemiluminescence Kit (Thermo) and signal was detected with an ImageQuant LAS4000 luminescent imager (General Electric). Quantification was done using Image J.

eIF4E-BP1 = assay: Western blot of pancreatic phospho-eIF4E-BP1; assay type: in vivo, mouse; details: mice, 1 mg/kg FGF21 or CCK for 15 min
Method: as §3

PLCβ3 = assay: Western blot of pancreatic phospho-PLCβ; assay type: in vivo, mouse; details: WT mice, 5 μg/kg CCK (i.p.) for 15 min
Method: as §3
(§4) Activation of the CCK-A receptor leads to the phosphorylation of the b isoform of PLC, calcium release, and subsequent secretion. In contrast, FGF receptors activate the γ isoform. To explore whether FGF21 and CCK have different activation profiles for the PLC isoforms, we treated WT mice with vehicle, FGF21, or CCK for 15 min. […]

[2] = tested on: mouse primary acinar cells; assay: Cell secretion assay, amylase secretion; assay type: cell-based; details: 1 μg/mL FGF21 for 30 min
Method: Primary acinar cells were prepared by modification of a published protocol (Williams, et al., The American journal of physiology 235, 517-524, 1978). Briefly, mice were sacrificed by decapitation followed by dissection and washing of the pancreas in 1×PBS. Pancreas digestion medium (0.75 mg/ml collagenase type XI-S [Sigma], 0.1 mg/ml soybean trypsin inhibitor [Sigma], 1% BSA in DMEM) was injected into the pancreatic parenchyma with a 30 g syringe. Pancreas was then incubated in digestion medium for 20-40 minutes with constant mixing using serological pipets of decreasing diameters. Cells were filtered through a 100 μm strainer and washed 3 times with incubation medium (0.1 mg/ml soybean trypsin inhibitor, 1% BSA in DMEM) via centrifugation at 50×g for 3 minutes per wash. Cells were plated and allowed to recover for 2 hours in incubation medium at 37° C.
Primary acinar and AR42J cells were treated with vehicle, FGF21 (1 μg/ml for both primary acinar cells and AR42J) or CCK (10 pM for primary acinar cells and 100 pM for AR42J cells [Phoenix Pharmaceuticals]) for 30 minutes at 37° C. Amylase levels in both the cell medium and cells were analyzed using an Amylase Assay Kit (Abcam).

Fgf21-KO mice [3] = assay: Western blot of pancreatic amylase and lipase levels; assay type: in vivo, mouse; details: 1 mg/kg recombinant FGF21 twice per day for two consecutive days
Method: as §2
as §3, with “Membranes were then incubated with HRP-conjugated secondary antibodies (Cell Signaling Technology) against the primary antibody's host species for 1 hour.” left out

Fgf21-KO mice [4] = assay: H&E staining of pancreas, eosinophilic area fraction; assay type: in vivo, mouse; details: 1 mg/kg recombinant FGF21 twice per day for two consecutive days
Method: as §2
Mouse pancreas was fixed in 10% neutral buffered formalin overnight and then paraffin embedded, sectioned and hematoxylin and eosin stained. For fresh frozen histology, the pancreas was quickly dissected, snap frozen in cooled isopentane and sectioned at 14-16 μm. The sections were then fixed in 10% neutral buffered formalin for 15 min at 4° C., washed 3 times in 1×PBS and mounted with Vectashield mounting medium with DAPI (Vector Laboratories). Images were acquired with a Zeiss Axioscan Z1 slide scanner at a 20× magnification. Quantification of the eosinophilic area was performed using Image J.

[5] = tested on: Female Swiss Webster mice; assay: ERCP-induced pancreatitis model, histological grading of pancreas; assay type: in vivo, mouse; details: 1 mg/kg FGF21, 4 subcutaneous injections
Method: To evaluate if FGF21 confers a beneficial effect against ERCP-induced pancreatitis, a preclinical study was performed in an established rodent model of ERCP that develops pancreatitis 24 hours after ERCP. Female Swiss Webster mice were treated with either 4 subcutaneous injections of vehicle or 1 mg/kg FGF21 in the following way: 1 injection the day prior to ERCP, 2 injections the day of the ERCP procedure, and 1 injection the day following ERCP. Mice were subjected to the ERCP procedure, which consisted of a high-pressure infusion of a radiocontrast agent through the pancreatic duct.

secretin = assay: Blood concentration of secretin; assay type: in vivo, mouse; details: mice treated with FGF21
PLCγ1 = assay: Western blot of pancreatic phospho-PLCγ; assay type: in vivo, mouse; details: WT mice, 1 mg/kg FGF21 for 15 min
Method: as §3, §4

[6] = tested on: Klb^fl/fl and Klb^Cela1−/− mice; assay: Pancreatic juice collection: flow rate and amylase levels; assay type: in vivo, mouse; details: 1 mg/kg FGF21 for 2 consecutive days
Method: as §2
To explore whether FGF21 also acts directly on pancreatic acinar cells in vivo, we generated an inducible acinar cell-specific β-Klotho (Klb) knockdown mouse model in which Cre recombinase expression was under the control of a modified estrogen receptor and the elastase promoter. Efficient knockdown of Klb expression following tamoxifen administration was confirmed in floxed Klb mice carrying the Cre allele (Klb^Cela1−/−). There was no change in plasma FGF21 concentrations in Klb^Cela1−/− mice under fasted conditions. Similar to the Fgf21 KO mice, the Klb^Cela1−/− mice had increased zymogen granule density and pancreatic digestive enzyme concentrations. To test whether FGF21 acts directly on pancreatic acinar cells to stimulate secretion, Klb^fl/fl and Klb^Cela1−/− mice were treated with either vehicle or FGF21 and pancreatic juice collected for 15 min. […] Thus, the basis for the remaining effect of FGF21 on pancreatic juice flow rate requires further investigation.

[7] = tested on: Fgf21-transgenic (Tg) mice; assay: Cerulein-induced pancreatitis (CIP), ER stress markers; assay type: in vivo, mouse; details: chronic FGF21 via liver-specific transgene, supraphysiologic circulating levels; cerulein 50 μg/kg, seven hourly i.p. injections
Description: as §1, with “experiments. […]” for “experiments.”
Pancreas was homogenized using Fastprep-24 lysing matrix bead tubes (MP Biomedicals) in 1×RIPA buffer (Cell Signaling Technology) supplemented with a cocktail of protease and phosphatase inhibitors (Roche). Protein lysate concentrations were measured using the DC Protein Assay (Biorad). […] Membranes were developed using the Super Signal West Chemiluminescence Kit (Thermo) and signal was detected with an ImageQuant LAS4000 luminescent imager (General Electric). Quantification was done using Image J.

[8] = Klb^Cela1−/− mice, juice collected for 15 min

Molecule	block of CCK-mediated calcium release (AR42J cells; 100 pM CCK)	block of calcium release elicited by FGF21 (AR42J cells)	intracellular calcium release (ΔF/F0) (AR42J cells)	3H-phenylalanine incorporation into pancreatic protein (pancreatic protein synthesis) [1]	ERK1/2 phosphorylation in pancreas (FIG. 4F) (ERK1/2)	ERK1/2 phosphorylation in pancreas (FIG. 3B) (ERK1/2)	phosphorylation of eIF4E-BP1 in pancreas (eIF4E-BP1)	also measured
COc1ccc2c(c1)CC[C@@H]1[C@@H]2CC[C@]2(C)[C@@H](NCCCCCCN3C(=O)C=CC3=O)CC[C@@H]12 [U73122]	blocked	blocked						
CN1C(=O)[C@@H](NC(=O)c2cc3ccccc3[nH]2)N=C(c2ccccc2)c2ccccc21 [L-364,718]	blocked	not						
cholecystokinin [CCK]			triggered intracellular calcium release	significantly increased	induced	induced	increased	time to peak calcium levels after treatment (AR42J cells; 100 pM CCK): ≤ 30 s; change of FGF21 in the blood (ad-lib fed WT mice): without any change; increase in the concentration of FGF21 in the pancreatic juice (ad-lib fed WT mice): 3 fold; phosphorylation of PLCβ in pancreas (PLCβ3): induced
CCN(CC)CCCCNc1ncc2cc(-c3cc(OC)cc(OC)c3)c(NC(=O)NC(C)(C)C)nc2n1 [PD173074]	not	blocked						
NCCOB(c1ccccc1)c1ccccc1 [2-APB]	blocked	blocked						
B1			triggered intracellular calcium release	no significant effect	induced	induced	no effect	amylase (digestive enzyme) secretion from acinar cells [2]: Induce Pancreatic Digestive Enzyme Secretion; time to peak calcium levels after treatment (AR42J cells; 1 μg/ml FGF21): 60 to 120 s; pancreatic digestive enzyme levels (amylase, lipase), immunoblot (Fgf21-KO mice [3]): reduction; pancreatic eosinophilic area fraction (Fgf21-KO mice [4]): decreased the pancreatic eosinophilic area fraction in Fgf21-KO mice to wild type (WT) levels; edema after ERCP, histological grading [5]: decreased; inflammation after ERCP, histological grading [5]: decreased; blood concentrations of secretin (secretin): did not increase; phosphorylation of PLCγ in pancreas (PLCγ1): induced; effect on digestive enzyme secretion (amylase in pancreatic juice) in Klb^Cela1−/− mice [6, 8]: absent; effect on pancreatic juice flow rate in Klb^Cela1−/− mice [6, 8]: significantly reduced but not eliminated; digestive enzyme secretion into pancreatic juice ([6]; control mice): stimulate; pancreatic juice flow ([6]; control mice): stimulate; ER stress parameters (p-eIF2α, Atf4, Chop, Bip mRNA) in response to CIP [7]: suppressed
